We go through three molecules from US20220252584, “METHODS AND DEVICES FOR […] A PATHOGEN AND ITS MOLECULAR COMPONENTS” (THE REGENTS OF THE UNIVERSITY OF CALIFORNIA, published 2022).

Data set [1] addresses SARS-CoV-2 spike RBD (SARS-CoV-2, UniProt P0DTC2 P0DTC2:319-541).
Data set [2] deals with SARS-CoV spike RBD (SARS-CoV, UniProt P59594 P59594:306-527).
Data set [3] has as its target SARS-CoV-2 nucleocapsid (N) protein (SARS-CoV-2, UniProt P0DTC9 P0DTC9:1-419).
For data set [4], the target named is SARS-CoV N protein (SARS-CoV, UniProt P59595 P59595:1-422).

B1: Aptamer-S (Aptamer 1C) (ssDNA)
DNA: CAGCACCGACCTTGTGCTTTGGGAGTGCTGGTCCAAGGGCGTTAATGGACA
For the molecule B1, the binding result in data set [1] and in data set [2] was “binds” throughout.

B2: Aptamer-N (Aptamer Np-48) (ssDNA)
DNA: GCTGGATGTCGCTTACGACAATATTCCTTAGGGGCACCGCTACATTGACACATCCAGC
modifications: 3' amino linker, coupled to PBASE-graphene
With B2, the binding result in data set [3] is on record as “binds”.

B3: Aptamer-N (Aptamer Np-48) (ssDNA)
DNA: B2 DNA
For the molecule B3, the binding result in data set [4] was “binds”.
